The test system of the data set is K4 kissing-loop RNA reporter. Briefly: apparent KD of K4 kissing-loop reporter; higher = weaker reporter binding. The conditions noted are these: Eterna round: R107. The method, then: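 RNA-MaP round R107: designed RNA switches with theophylline, tryptophan, arginine or FMN aptamers are transcribed on-chip within common flanks. They are titrated with a labelled K4 kissing-loop RNA reporter in RNA-MaP buffer (100 mM Tris pH 7.5, 80 mM KCl, 4 mM MgCl2), without ligand or with the indicated ligand. Median apparent KD per design.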

[1] abbreviates: input ligand: theophylline 20 uM.
[2] abbreviates: input ligand: tryptophan 2.4 mM.

The results in this text go back to the supplement of paper PMC9170038.
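Further: bound reporter read as fluorescence of individual clusters on recovered sequencing chips by microscopy, with normalized cluster intensities fitted with a binding model.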

Turning to “ACGUAGUACGUAGGAUAUCAGAGAUCAGUUAGUGAGAUCGAGUGAUGUUCGAUCAUGUGUUCAGUUUGAGAAGGAUGUAGUAGGA [KL-SSFMN-B5]”, the “apparent KD of K4 kissing-loop reporter” value was determined as 0.214 µM (input ligand: FMN 200 uM); 0.28 µM (input ligand: arginine 13.2 mM); 0.355 µM (input ligand: none); 0.408 µM under setting [1]; 0.198 µM under setting [2].
For the sequence “CCUAUCUCAUACGAUACCAGUCAAUUAAAUUUUAUAAAUGCCAUCACCGAGUGAUGUUCGGACCCUUGGCAGCGUAUGGGAUAGG [Ex Theophylline B K4 2]”, the “apparent KD of K4 kissing-loop reporter” value reads like this: (input ligand: FMN 200 uM) 0.222 µM; (input ligand: arginine 13.2 mM) 0.175 µM; (input ligand: none) 0.198 µM; under setting [1], 0.31 µM; under setting [2], 0.187 µM.
Taken in the same sequence, the figures for “GGGAGAAGAGCGGCCGCCACUCAGACAGCAGCAGAAUAUAGUGAUGUUAUAUAGGAAAGGCGGAGGAGGACCGGGCUUAAGAGGG [#20 K4 Tryptophan B Same State]” were 0.308 µM, 0.303 µM, 0.278 µM, 0.362 µM and 0.316 µM.
In the same order, the values of “UGUACCGAGUUAGGAUAUGUCGUCGAAAGACGAAAUGGAGUGAUGUUCCUUAAACUGCGAAAGCAGACAGAAGGGACUUGGUACU [FmnBS 29 U11]” are 0.233 µM, 0.473 µM, 0.474 µM, 0.493 µM and 0.429 µM.
In the same order, the values of “GGGCCUGGGCCCGGAAGGGCCUGGGCCCGUUAGGAUAUGACGUGAUUCAGAAGGGAUGGGUGGAGUGAUGUUCCACCCGAGAGGG [#2 Same State - FMN A Attempt #25 (HarryS)]” are 0.0859 µM, 0.0905 µM, 0.0815 µM, 0.0731 µM and 0.0633 µM.
With “AAACGUUGGUCUGAUACCAGCUGAUCGGAAACGAUCUUGCUGGAGUGAUGUUCCAGGAAAAGCCCUUGGCAGCAGACCGACGAAA [MAT - Same State Theophlline B - Mod of Eli - D25]”, the “apparent KD of K4 kissing-loop reporter” value reads like this: (input ligand: FMN 200 uM) 0.901 µM; (input ligand: arginine 13.2 mM) 0.714 µM; (input ligand: none) 1.51 µM; under setting [1], 1.26 µM; under setting [2], 0.894 µM.
Regarding “UAGUCGCUAGUUAGCGACAACGGGUCAGAUACCAGACUAGCGAUAGUCCCUUGGCAGCUGAAGUUCAGUGAUGUUGAACGGAUUA [Theo A SS t10]”, the “apparent KD of K4 kissing-loop reporter” value reads like this: (input ligand: FMN 200 uM) 0.192 µM; (input ligand: arginine 13.2 mM) 0.296 µM; (input ligand: none) 0.265 µM; under setting [1], 0.23 µM; under setting [2], 0.207 µM.
In the same order, the values of “GACUCAUGUAGAAGGAGCGUCAGAAGCUACAGACAUGAGUGAUGUUCAUGUUAGUUGAUCUGACAGGUAGGUCGCUACAGCAGGA [KL-SSArg B14 #analogue]” are 0.145 µM, 0.121 µM, 0.149 µM, 0.141 µM and 0.15 µM.
On to “GGGAGAGCGCGAAGGAGCGCCCUGACAGGUUGCUGCCGUGGGCAGUGAUGUUGCUCAGUCCGGCAGGUAGGUCGCGUGCUCUCCC”, for which the “apparent KD of K4 kissing-loop reporter” value came out at 0.178 µM (input ligand: FMN 200 uM); 0.148 µM (input ligand: arginine 13.2 mM); 0.192 µM (input ligand: none); 0.2 µM under setting [1]; 0.177 µM under setting [2].
For “UGAUACCAGACUGAUACCAGCUAGUGAUGUUAGCUAAAAUCAGGGUCAAAGACCCUGUCUGGCCCUUGGCAGCAGUCUGGUAUCU [TheoBX 10 #SwitchBubble #StaticStem]”, the “apparent KD of K4 kissing-loop reporter” value runs as follows: (input ligand: FMN 200 uM) 0.137 µM; (input ligand: arginine 13.2 mM) 0.12 µM; (input ligand: none) 0.134 µM; under setting [1], 0.191 µM; under setting [2], 0.12 µM.
With “AAACAUUGGUCUGAUACCAGCUGAUCGGAAACGAUCAUGCUGGAGUGAUGUUCCAGGAAAAGCCCUUGGCAGCAGACCGAUGAAA [MAT - Same State Theophlline B - Mod of Eli - D28]”, the “apparent KD of K4 kissing-loop reporter” value (input ligand: FMN 200 uM) was 0.0947 µM; the “apparent KD of K4 kissing-loop reporter” value (input ligand: arginine 13.2 mM) turned out to be 0.103 µM; the “apparent KD of K4 kissing-loop reporter” value (input ligand: none) came out at 0.0756 µM; the “apparent KD of K4 kissing-loop reporter” value under setting [1] is 0.184 µM; the “apparent KD of K4 kissing-loop reporter” value under setting [2] was 0.137 µM.
